Reference: patent US20090214547A1
Several values for one entry are separate records, joined by “and”; a condition that tells them apart may be missing. Equal entries are not always repeated.

Assays:
[1] = target: PLY Peptide 10146; experiment: peptide ELISA, plate 1
[2] = target: Peptide GNT-01; experiment: peptide ELISA, plate 1
[3] = target: Peptide GNT-02; experiment: peptide ELISA, plate 1
[4] = target: Peptide GNT-08; experiment: peptide ELISA, plate 1
[5] = target: Peptide GNT-13; experiment: peptide ELISA, plate 1
[6] = target: Peptide GNT-14; experiment: peptide ELISA, plate 1
[7] = target: PsaA Peptide 9144; experiment: peptide ELISA, plate 1
[8] = target: PLY Peptide 10146; experiment: peptide ELISA, plate 2
[9] = target: Peptide GNT-01; experiment: peptide ELISA, plate 2
[10] = target: Peptide GNT-04; experiment: peptide ELISA, plate 2
[11] = target: Peptide GNT-05; experiment: peptide ELISA, plate 2
[12] = target: Peptide GNT-06; experiment: peptide ELISA, plate 2
[13] = target: Peptide GNT-061; experiment: peptide ELISA, plate 2
[14] = target: Peptide GNT-062; experiment: peptide ELISA, plate 2
[15] = target: Peptide GNT-07; experiment: peptide ELISA, plate 2
[16] = target: Peptide GNT-08; experiment: peptide ELISA, plate 2
[17] = target: Peptide GNT-09; experiment: peptide ELISA, plate 2
[18] = target: Peptide GNT-10; experiment: peptide ELISA, plate 2
[19] = target: Peptide GNT-13; experiment: peptide ELISA, plate 2
[20] = target: Peptide GNT-14; experiment: peptide ELISA, plate 2
[21] = target: PsaA Peptide 9144; experiment: peptide ELISA, plate 2
[22] = target: PLY Peptide 10146; experiment: peptide ELISA, plate 1 overview
[23] = target: Peptide GNT-01; experiment: peptide ELISA, plate 1 overview
[24] = target: Peptide GNT-02; experiment: peptide ELISA, plate 1 overview
[25] = target: Peptide GNT-07; experiment: peptide ELISA, plate 1 overview
[26] = target: Peptide GNT-08; experiment: peptide ELISA, plate 1 overview
[27] = target: Peptide GNT-13; experiment: peptide ELISA, plate 1 overview
[28] = target: Peptide GNT-14; experiment: peptide ELISA, plate 1 overview
[29] = target: PsaA Peptide 9144; experiment: peptide ELISA, plate 1 overview
[30] = target: PLY Peptide 10146; experiment: peptide ELISA, plate 2 overview
[31] = target: Peptide GNT-01; experiment: peptide ELISA, plate 2 overview
[32] = target: Peptide GNT-02; experiment: peptide ELISA, plate 2 overview
[33] = target: Peptide GNT-04; experiment: peptide ELISA, plate 2 overview
[34] = target: Peptide GNT-05; experiment: peptide ELISA, plate 2 overview
[35] = target: Peptide GNT-06; experiment: peptide ELISA, plate 2 overview
[36] = target: Peptide GNT-061; experiment: peptide ELISA, plate 2 overview
[37] = target: Peptide GNT-062; experiment: peptide ELISA, plate 2 overview
[38] = target: Peptide GNT-07; experiment: peptide ELISA, plate 2 overview
[39] = target: Peptide GNT-08; experiment: peptide ELISA, plate 2 overview
[40] = target: Peptide GNT-09; experiment: peptide ELISA, plate 2 overview
[41] = target: Peptide GNT-10; experiment: peptide ELISA, plate 2 overview
[42] = target: Peptide GNT-13; experiment: peptide ELISA, plate 2 overview
[43] = target: Peptide GNT-14; experiment: peptide ELISA, plate 2 overview
[44] = target: PsaA Peptide 9144; experiment: peptide ELISA, plate 2 overview

B1: 22-1C11.1 (antibody, V domains shown)
VH: VKLQESGGGVVQPGRSLRLSCAASGFTFSNYGMHWVRQAPGKGLEWVAVIWYDGSNKYYADFVKGRFTISRDNSKNTLYLQMNSLRAEDTAVYYCARRGNYYGLGSFYYYGMDVWGQGTTVTVSS
VL: DIQMTQSPATLSLSPGERATLSCRASQSVSSYLAWYQQKPGQAPRLLIYDASNRATGIPARFSGSGSGTDFTLTISSLEPEDFAVYYCQQCSNWHPTFGQGTKLEIKR
Elisa reading [1]: 1.09 and 1.71 and 2.24 | Elisa reading [2]: 0.72 and 1.16 and 1.7 | Elisa reading [3]: 2.05 and 2.51 and 3 | Elisa reading [4]: 0.71 and 0.91 and 1.52 | Elisa reading [5]: 0.11 and 0.12 and 0.25 | Elisa reading [6]: 0.1 and 0.22 | Elisa reading [7]: 0.16 and 0.1 and 0.19 | Elisa reading [8]: 1.58 | Elisa reading [9]: 1.27 | Elisa reading [10]: 0.748 | Elisa reading [11]: 0.816 | Elisa reading [12]: 0.56 | Elisa reading [13]: 0.61 | Elisa reading [14]: 0.844 | Elisa reading [15]: 0.681 | Elisa reading [16]: 0.73 | Elisa reading [17]: 0.475 | Elisa reading [18]: 0.403 | Elisa reading [19]: 0.264 | Elisa reading [20]: 0.257 | Elisa reading [21]: 0.539 | Elisa reading [22]: 1.09 | Elisa reading [23]: 0.72 | Elisa reading [24]: 2.05 | Elisa reading [25]: 0.24 | Elisa reading [26]: 0.71 | Elisa reading [27]: 0.11 | Elisa reading [28]: 0.1 | Elisa reading [29]: 0.16 | Elisa reading [30]: 1.58 | Elisa reading [31]: 1.27 | Elisa reading [32]: > 3 | Elisa reading [33]: 0.75 | Elisa reading [34]: 0.82 | Elisa reading [35]: 0.56 | Elisa reading [36]: 0.61 | Elisa reading [37]: 0.84 | Elisa reading [38]: 0.68 | Elisa reading [39]: 0.73 | Elisa reading [40]: 0.48 | Elisa reading [41]: 0.4 | Elisa reading [42]: 0.26 | Elisa reading [43]: 0.26 | Elisa reading [44]: 0.54
